The results in this text go back to US10925971B2, “Methods of treating PRLR positive breast cancer” (Regeneron Pharmaceuticals, Inc., priority 2016, dated 2021).

The test system of the assay is MCF7/PRLR tumors. Kind of assay: MCF7/PRLR breast tumor xenograft, tumor volume (Example 13). Format: in vivo, NCr nude mice. How it is done:
After MCF7 or MCF7/PRLR tumors reached an average volume of ˜150-200 mm^3 (14-16 days post implantation), mice were randomized into treatment groups (n=8-9 mice/group) and received a single dose or three once-weekly doses of H1H6958N2-DM1, control ADC, or vehicle control, administered systemically by intravenous tail-vein injection. Tumor size and body weight were measured in vivo twice per week throughout the duration of the study.
The T47Dv11 model was used to assess the activity of H1H6958N2-DM1 in a model with significant levels of endogenous PRLR. […] Initially, 10×10^6 parental T47D cells were implanted subcutaneously (SC) into the left flank of female C.B.-17 SCID mice (Taconic, Hudson N.Y.). Tumors were supplemented with a 90-day release 1.7 mg estrogen pellet (Innovative Research America). Where T47D tumors were observed, they were excised and cut into 3 mm fragments and subsequently implanted into the left flank of separate female C.B.-17 SCID mice. Subsequent passaging was performed until a large tumor was disaggregated into a single cell suspension. The cells (named T47Dv11) from this tumor were then cultured in vitro and expanded. […] For efficacy studies, mice were implanted with 7.5×10^6 T47Dv11 cells into the left flank of female C.B.-17 SCID mice supplemented with a 90-day release 0.72 mg/pellet estrogen pellet. For MCF7 and MCF7/PRLR tumor xenografts, 2×10^7 MCF7/PRLR cells were implanted SC into the left mammary fat pad of female NCr nude mice (7-8 weeks old) supplemented with 90-day release 0.72 mg/pellet estrogen pellets. Tumors were measured with calipers twice a week for the duration of each study. Tumor volume was calculated using the formula TV=(length×width^2)/2.

B1: H1H6958N2-DM1: anti-PRLR antibody H1H6958N2 conjugated to the maytansinoid DM1 through an SMCC linker (conjugate)
VH: QVQLVESGGGVVQPGRSLRLSCGASGFTFRNYGMQWVRQGPGKGLEWVTLISFDGNDKYYADSVKGRFTISRDNSKNTLFLQMNSLRTEDTAVYYCARGGDFDYWGQGTLVTVSS
VL: DIQMTQSPSSLSASVGDRVTITCRASQDIRKDLGWYQQKPGKAPKRLIYAASSLHSGVPSRFSGSGSGTEFTLTISSLQPEDFATYYCLQHNSYPMYTFGQGTKLEIK
Consider B1, for which the “antitumor efficacy” value runs as follows: (single dose 10 and 15 mg/kg) “eradication of the tumors”; (single dose at 2.5-15 mg/kg) “significant antitumor efficacy observed at all doses”; (three once-weekly doses of 5 and 15 mg/kg) “tumor eradication”.

B2: H1H6958N2: anti-PRLR antibody, receptor blocking, human IgG1 Fc form of H2M6958N2 of Table 1; HCVR/LCVR SEQ ID NOs 290/298 (antibody, V domains shown)
VH: B1 VH
VL: B1 VL
Turning to B2, the “antitumor efficacy of controls” value (MCF7/PRLR model, dose not stated) was “failed to induce any inhibition of tumor growth”.
